According to patent publication US20260250769, “METHODS FOR DETERMINING THE PRESENCE OR RISK OF DEVELOPING FACIOSCAPULOHUMERAL DYSTROPHY (FSHD)” (Fred Hutchinson Cancer Center, published 2026):
Changes are numbered by the printed parent chain.

B1: THE1D (dsDNA)
DNA 1: CCTGTGGGAGGTAATCCAATCATGGAGGCAG
DNA 2: CTGCCTCCATGATTGGATTACCTCCCACAGG
B2: THE1Dmut (dsDNA)
DNA 1: B1 DNA 1 with A14C, A18T, C21G
DNA 2: B1 DNA 2 with G11C, T14A, T18G
B3: CSF1R (dsDNA)
DNA 1: CCAGGTGGAGATAATTGAATCATGGGGGCAG
DNA 2: CTGCCCCCATGATTCAATTATCTCCACCTGG
B4: CSF1Rmut (dsDNA)
DNA 1: B3 DNA 1 with A14C, A18T, C21G
DNA 2: B3 DNA 2 with G11C, T14A, T18G
B5: TRIM48 (dsDNA)
DNA 1: AGGAGTGATGATAATTTAATCAGCCGTGCAA
DNA 2: TTGCACGGCTGATTAAATTATCATCACTCCT
B6: TRIM48mut (dsDNA)
DNA 1: B5 DNA 1 with A14C, A18T, C21G
DNA 2: B5 DNA 2 with G11C, T14A, T18G

Columns and labels:
DUX4-fl [1] = biological target: T1, DUX4-fl (Homo sapiens, UniProt Q9UBX2 SEQ:1-424); test: EMSA; cold self competitor inhibits binding; conditions: tags: from pCS2-DUX4-fl, TNT SP6 wheat germ extract; label: 32P
Experimental: (§1) EMSA was performed with ³²P-labeled 31-bp oligonucleotides from endogenous genomic sequences containing the putative DUX4 binding site as probes (sequences below; only forward shown). Radiolabeled probes were incubated with in vitro translated protein generated from pCS2-DUX4-fl or pCS2-DUX4-s² vectors using the TNT SP6 Coupled Wheat Germ Extract System (Promega) according to manufacturer's instructions. To obtain supershift of protein-DNA complexes, 0.1 μg of E14-3 anti-DUX4 rabbit monoclonal antibody was added to the mixtures. For competition experiments, excess unlabeled probes of either wild-type or mutant sequences were included in the binding reaction. The gels were prepared and run as previously described (Knoepfler et al., Nucleic Acids Res 27:3752-3761 (1999)).

DUX4-fl [2] = biological target: T1, DUX4-fl; test: competition; cold mutant does not compete with THE1D probe; conditions: tags: from pCS2-DUX4-fl, TNT SP6 wheat germ extract
Experimental: as §1

DUX4-s = DUX4-s (Homo sapiens); test: EMSA; supershift with E14-3; conditions: tags: from pCS2-DUX4-s2, TNT SP6 wheat germ extract; label: 32P
Experimental: as §1

DUX4-fl [3] = biological target: T1, DUX4-fl; test: competition; cold mutant does not compete with CSF1R probe; core printed as … in legend; conditions: tags: from pCS2-DUX4-fl, TNT SP6 wheat germ extract
Experimental: as §1

DUX4-fl [4] = biological target: T1, DUX4-fl; test: EMSA; supershift with E14-3; cold self competitor reduces binding; conditions: tags: from pCS2-DUX4-fl, TNT SP6 wheat germ extract; label: 32P
Experimental: as §1

DUX4-fl [5] = biological target: T1, DUX4-fl; test: competition; cold mutant does not compete with TRIM48 probe; conditions: tags: from pCS2-DUX4-fl, TNT SP6 wheat germ extract
Experimental: as §1

T1 sequence (Q9UBX2 whole entry): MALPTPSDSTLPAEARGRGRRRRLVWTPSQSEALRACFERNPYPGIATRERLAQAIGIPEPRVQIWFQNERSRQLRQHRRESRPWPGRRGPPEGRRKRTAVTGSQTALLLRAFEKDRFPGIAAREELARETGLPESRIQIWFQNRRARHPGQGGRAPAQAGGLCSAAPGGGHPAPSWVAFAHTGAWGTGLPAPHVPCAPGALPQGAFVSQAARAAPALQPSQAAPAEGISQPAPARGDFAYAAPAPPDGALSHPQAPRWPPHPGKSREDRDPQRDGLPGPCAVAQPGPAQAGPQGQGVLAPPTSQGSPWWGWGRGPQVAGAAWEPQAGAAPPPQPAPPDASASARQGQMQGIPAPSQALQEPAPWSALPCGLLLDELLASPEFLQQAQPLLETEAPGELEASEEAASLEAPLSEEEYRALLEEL
Sequence of DUX4-s (Homo sapiens) (Q6RFH8 other isoform, or with tags, fused parts or gaps): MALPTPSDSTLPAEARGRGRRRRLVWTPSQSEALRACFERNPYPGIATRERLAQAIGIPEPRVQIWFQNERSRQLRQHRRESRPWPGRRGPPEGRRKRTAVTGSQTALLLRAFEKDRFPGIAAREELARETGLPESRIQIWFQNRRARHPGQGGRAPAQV

| Binder | binding result (DUX4-fl [1]) | binding result (DUX4-s) | further results |
| --- | --- | --- | --- |
| B1 | binds |  |  |
| B2 |  |  | binding result (DUX4-fl [2]): no binding |
| B3 | binds | binds |  |
| B4 |  |  | binding result (DUX4-fl [3]): no binding |
| B5 |  | binds | binding result (DUX4-fl [4]): binds |
| B6 |  |  | binding result (DUX4-fl [5]): no binding |
